Results published in US20170209564A1.

What was measured:
Conditions in all cases: remark: other sources report otherwise
[1] = target: H1-mini2-cluster1+5+6-GCN4 without leader sequence and with FLAG-thrombin-foldon-HIS; experiment: ELISA, coated CR6261, HEK293F medium; average of the parental
[2] = target: s127H1; experiment: apparent Kd (Kd^app), purified polypeptide; method not stated
[3] = target: s86B4; experiment: as above
[4] = target: s55G7; experiment: as above
[5] = target: 74H9; experiment: ELISA, coated CR6261, P. pastoris medium
[6] = target: 36H2; experiment: ELISA, coated CR6261, P. pastoris medium
[7] = target: 60A2; experiment: ELISA, coated CR6261, P. pastoris medium
[8] = target: 71E7; experiment: ELISA, coated CR6261, P. pastoris medium
[9] = target: 78F11; experiment: ELISA, coated CR6261, P. pastoris medium
[10] = target: 4C1; experiment: ELISA, coated CR6261, P. pastoris medium
[11] = target: 54H4; experiment: ELISA, coated CR6261, P. pastoris medium
[12] = target: 91C8; experiment: ELISA, coated CR6261, P. pastoris medium
[13] = target: 84D3; experiment: ELISA, coated CR6261, P. pastoris medium
[14] = target: 71D3; experiment: ELISA, coated CR6261, P. pastoris medium
[15] = target: 84E10; experiment: ELISA, coated CR6261, P. pastoris medium
[16] = target: 53G10; experiment: ELISA, coated CR6261, P. pastoris medium
[17] = target: 11B4; experiment: ELISA, coated CR6261, P. pastoris medium
[18] = target: 69D2; experiment: ELISA, coated CR6261, P. pastoris medium
[19] = target: 63D3; experiment: ELISA, coated CR6261, P. pastoris medium
[20] = target: 26H1; experiment: ELISA, coated CR6261, P. pastoris medium
[21] = target: 75G5; experiment: ELISA, coated CR6261, P. pastoris medium
[22] = target: 86H9; experiment: ELISA, coated CR6261, P. pastoris medium
[23] = target: 71A4; experiment: ELISA, coated CR6261, P. pastoris medium
[24] = target: 75E9; experiment: ELISA, coated CR6261, P. pastoris medium
[25] = target: 72D4; experiment: ELISA, coated CR6261, P. pastoris medium
[26] = target: 56F4; experiment: ELISA, coated CR6261, P. pastoris medium
[27] = target: 86G2; experiment: ELISA, coated CR6261, P. pastoris medium
[28] = target: 71H2; experiment: ELISA, coated CR6261, P. pastoris medium
[29] = target: 57B8; experiment: ELISA, coated CR6261, P. pastoris medium
[30] = target: 74H9; experiment: ELISA signal over HTRF expression signal, HEK293F
[31] = target: 131B5; experiment: ELISA signal over HTRF expression signal, HEK293F
[32] = target: 91C4; experiment: ELISA signal over HTRF expression signal, HEK293F
[33] = target: 6E12; experiment: ELISA signal over HTRF expression signal, HEK293F
[34] = target: 71C4; experiment: ELISA signal over HTRF expression signal, HEK293F
[35] = target: 86B4; experiment: ELISA signal over HTRF expression signal, HEK293F
[36] = target: 7A7; experiment: ELISA signal over HTRF expression signal, HEK293F
[37] = target: 181H9; experiment: ELISA signal over HTRF expression signal, HEK293F
[38] = target: 113E7; experiment: ELISA signal over HTRF expression signal, HEK293F
[39] = target: 115A1; experiment: ELISA signal over HTRF expression signal, HEK293F
[40] = target: 171E5; experiment: ELISA signal over HTRF expression signal, HEK293F
[41] = target: 220C9; experiment: ELISA signal over HTRF expression signal, HEK293F
[42] = target: 127H1; experiment: ELISA signal over HTRF expression signal, HEK293F
[43] = target: 71H2; experiment: ELISA signal over HTRF expression signal, HEK293F

B1: CR6261 (antibody, V domains shown)
VH: EVQLVESGAEVKKPGSSVKVSCKASGGPFRSYAISWVRQAPGQGPEWMGGIIPIFGTTKYAPKFQGRVTITADDFAGTVYMELSSLRSEDTAMYYCAKHMGYQVRETMDVWGKGTTVTVSS
VL: QSVLTQPPSVSAAPGQKVTISCSGSSSNIGNDYVSWYQQLPGTAPKLLIYDNNKRPSGIPDRFSGSKSGTSATLGITGLQTGDEANYYCATWDRRPTAYVVFGGGTKLTVLG
CR6261 binding signal [1]: 5.66e+06
Kd [2]: 130 nM
Kd [3]: 150 nM
Kd [4]: 150 nM
CR6261 binding signal [5]: 1.28e+06
CR6261 binding signal [6]: 171000
CR6261 binding signal [7]: 92700
CR6261 binding signal [8]: 203000
CR6261 binding signal [9]: 84100
CR6261 binding signal [10]: 386000
CR6261 binding signal [11]: 292000
CR6261 binding signal [12]: 334000
CR6261 binding signal [13]: 84400
CR6261 binding signal [14]: 1.57e+06
CR6261 binding signal [15]: 255000
CR6261 binding signal [16]: 108000
CR6261 binding signal [17]: 166000
CR6261 binding signal [18]: 446000
CR6261 binding signal [19]: 146000
CR6261 binding signal [20]: 79700
CR6261 binding signal [21]: 1.01e+06
CR6261 binding signal [22]: 457000
CR6261 binding signal [23]: 1.05e+06
CR6261 binding signal [24]: 135000
CR6261 binding signal [25]: 330000
CR6261 binding signal [26]: 186000
CR6261 binding signal [27]: 69700
CR6261 binding signal [28]: 1.11e+06
CR6261 binding signal [29]: 58400
fold increase of ratio over parental SEQ ID NO: 6 [30]: 4.37
ratio (binding signal/HTRF signal) [30]: 75.8
fold increase of ratio over parental SEQ ID NO: 6 [31]: 2.36
ratio (binding signal/HTRF signal) [31]: 41
fold increase of ratio over parental SEQ ID NO: 6 [32]: 1.98
ratio (binding signal/HTRF signal) [32]: 34.4
fold increase of ratio over parental SEQ ID NO: 6 [33]: 2.85
ratio (binding signal/HTRF signal) [33]: 49.5
fold increase of ratio over parental SEQ ID NO: 6 [34]: 1.72
ratio (binding signal/HTRF signal) [34]: 29.9
fold increase of ratio over parental SEQ ID NO: 6 [35]: 3.44
ratio (binding signal/HTRF signal) [35]: 59.6
fold increase of ratio over parental SEQ ID NO: 6 [36]: 1.47
ratio (binding signal/HTRF signal) [36]: 25.5
fold increase of ratio over parental SEQ ID NO: 6 [37]: 2.11
ratio (binding signal/HTRF signal) [37]: 36.6
fold increase of ratio over parental SEQ ID NO: 6 [38]: 2.87
ratio (binding signal/HTRF signal) [38]: 49.9
fold increase of ratio over parental SEQ ID NO: 6 [39]: 3.14
ratio (binding signal/HTRF signal) [39]: 54.5
fold increase of ratio over parental SEQ ID NO: 6 [40]: 1.62
ratio (binding signal/HTRF signal) [40]: 28.1
fold increase of ratio over parental SEQ ID NO: 6 [41]: 3
ratio (binding signal/HTRF signal) [41]: 52.1
fold increase of ratio over parental SEQ ID NO: 6 [42]: 4.25
ratio (binding signal/HTRF signal) [42]: 73.8
fold increase of ratio over parental SEQ ID NO: 6 [43]: 3.61
ratio (binding signal/HTRF signal) [43]: 62.7
